# Changes are numbered by the printed parent chain.
# B1: MS-R 8.2L1 Fab (antibody, V domains shown)
# VH: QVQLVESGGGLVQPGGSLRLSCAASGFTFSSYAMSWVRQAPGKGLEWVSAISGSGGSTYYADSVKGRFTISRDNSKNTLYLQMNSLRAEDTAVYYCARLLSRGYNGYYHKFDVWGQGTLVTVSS
# VL: DIVLTQSPATLSLSPGERATLSCRASQRVSGRYLAWYQQKPGQAPRLLIYGASSRATGVPARFSGSGSGTDFTLTISSLEPEDFATYYCQQLSSYPPTFGQGTKVEIKR
# B2: MS-R 7.9H2 Fab (antibody, V domains shown)
# VH: QLVESGGGLVQPGGSLRLSCAASGFTFSSYAMSWVRQAPGKGLEWVSAINADGNRKYYADSVKGRFTISRDNSKNTLYLQMNSLRAEDTAVYYCARGKGNTHKPYGYVRYFDVWGQGTLVTVSS
# VL: B1 VL with R28S, G31S, R32S, Q90L, L92I, S93Y, S94N, Y95M, P97I
# B3: MS-R 7.2L1 Fab (antibody, V domains shown)
# VH: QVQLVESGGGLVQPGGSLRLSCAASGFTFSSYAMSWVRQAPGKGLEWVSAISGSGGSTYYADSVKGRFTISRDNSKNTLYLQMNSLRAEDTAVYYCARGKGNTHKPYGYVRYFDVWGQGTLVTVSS
# VL: B1 VL with R28Y, S30D, G31R, R32T, L92I, S93Y, Y95F, P97H
# B4: MS-R 7.11L1 Fab (antibody, V domains shown)
# VH: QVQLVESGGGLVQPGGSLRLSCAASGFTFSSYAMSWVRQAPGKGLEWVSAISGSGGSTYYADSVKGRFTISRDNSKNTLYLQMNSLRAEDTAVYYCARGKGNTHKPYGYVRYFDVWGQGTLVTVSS
# VL: B1 VL with V29I, S30L, G31R, R32I, L92V, S93Y, Y95P, P97H
# B5: MS-R 3.6L2 Fab (antibody, V domains shown)
# VH: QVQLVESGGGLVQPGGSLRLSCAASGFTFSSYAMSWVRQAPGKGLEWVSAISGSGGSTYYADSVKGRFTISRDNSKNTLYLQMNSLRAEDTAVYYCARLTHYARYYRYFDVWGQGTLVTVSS
# VL: B1 VL with R28F, V29L, G31R, R32Y, T86V, L92T, S93Y, S94N
# B6: MS-R 3.4L9 Fab (antibody, V domains shown)
# VH: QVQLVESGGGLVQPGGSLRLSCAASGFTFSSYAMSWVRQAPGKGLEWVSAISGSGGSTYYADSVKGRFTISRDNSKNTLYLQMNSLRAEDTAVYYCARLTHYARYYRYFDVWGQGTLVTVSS
# VL: B1 VL with Q27R, V29I, S30H, G31V, R32Y, L92T, S93Y, S94D
# B7: MS-R 3.4L7 Fab (antibody, V domains shown)
# VH: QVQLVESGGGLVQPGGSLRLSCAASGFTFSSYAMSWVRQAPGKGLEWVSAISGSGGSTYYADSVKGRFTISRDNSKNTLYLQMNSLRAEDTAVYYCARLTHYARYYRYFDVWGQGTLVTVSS
# VL: B1 VL with V29L, S30G, G31R, R32L, L92T, S93Y, S94D
# B8: MS-R 7.9 Fab (antibody, V domains shown)
# VH: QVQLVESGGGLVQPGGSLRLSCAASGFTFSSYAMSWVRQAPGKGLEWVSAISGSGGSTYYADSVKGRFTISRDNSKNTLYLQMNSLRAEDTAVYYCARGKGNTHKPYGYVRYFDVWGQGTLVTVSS
# VL: B1 VL with R28S, G31S, R32S, Q90L, L92I, S93Y, S94N, Y95M, P97I
# B9: MS-R 7.9H4 Fab (antibody, V domains shown)
# VH: B2 VH with D52V, N54M, R55K, Y57F
# VL: B1 VL with R28S, G31S, R32S, Q90L, L92I, S93Y, S94N, Y95M, P97I
# B10: MS-R 7 Fab (antibody, V domains shown)
# VH: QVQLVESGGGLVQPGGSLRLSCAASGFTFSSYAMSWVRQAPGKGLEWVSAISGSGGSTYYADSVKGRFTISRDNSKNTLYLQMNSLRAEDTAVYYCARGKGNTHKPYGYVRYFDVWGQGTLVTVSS
# VL: B1 VL with R28S, G31S, R32S, Q90F, S93Y, Y95D, P97F
# B11: MS-R 3.6L1 Fab (antibody, V domains shown)
# VH: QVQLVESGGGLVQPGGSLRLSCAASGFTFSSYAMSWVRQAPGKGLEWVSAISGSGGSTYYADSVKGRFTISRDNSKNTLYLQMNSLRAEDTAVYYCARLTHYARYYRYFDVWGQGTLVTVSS
# VL: B1 VL with R28F, V29I, S30Q, G31R, R32F, T86V, L92T, S93Y, S94N
# B12: MS-R 7.9H7 Fab (antibody, V domains shown)
# VH: QVQLVESGGGLVQPGGSLRLSCAASGFTFSSYAMSWVRQAPGKGLEWVSAINASGTRTYYADSVKGRFTISRDNSKNTLYLQMNSLRAEDTAVYYCARGKGNTHKPYGYVRYFDVWGQGTLVTVSS
# VL: B1 VL with R28S, G31S, R32S, Q90L, L92I, S93Y, S94N, Y95M, P97I
# B13: MS-R 7.11.H1 x 7.2.L1 IgG1 (antibody, V domains shown)
# VH: B2 VH with A48G, D52A, N54F, K56T
# VL: B1 VL with R28Y, S30D, G31R, R32T, L92I, S93Y, Y95F, P97H
# B14: MS-R 3.4H7 x 3.4L9 Fab (antibody, V domains shown)
# VH: QLVESGGGLVQPGGSLRLSCAASGFTFSSYAMSWVRQAPGKGLEWVSVISETGKNIYYADSVKGRFTISRDNSKNTLYLQMNSLRAEDTAVYYCARLTHYARYYRYFDVWGQGTLVTVSS
# VL: B1 VL with Q27R, V29I, S30H, G31V, R32Y, L92T, S93Y, S94D
# B15: MS-R 3.4H3 x 3.4L9 Fab (antibody, V domains shown)
# VH: B14 VH with E51Q, K54R, N55K
# VL: B1 VL with Q27R, V29I, S30H, G31V, R32Y, L92T, S93Y, S94D
# B16: MS-R 7.2H2 x 7.2L1 Fab (antibody, V domains shown)
# VH: B2 VH with A51G, D52T, N54M, R55K
# VL: B1 VL with R28Y, S30D, G31R, R32T, L92I, S93Y, Y95F, P97H
# B17: MS-R 3.4H3 x 3.4L7 Fab (antibody, V domains shown)
# VH: B14 VH with E51Q, K54R, N55K
# VL: B1 VL with V29L, S30G, G31R, R32L, L92T, S93Y, S94D
# B18: MS-R 7.11H1 x 7.11L1 Fab (antibody, V domains shown)
# VH: B2 VH with A48G, D52A, N54F, K56T
# VL: B1 VL with V29I, S30L, G31R, R32I, L92V, S93Y, Y95P, P97H
# B19: MS-R 8.1H1 x 8.2L1 Fab (antibody, V domains shown)
# VH: QLVESGGGLVQPGGSLRLSCAASGFTFSSYAMSWVRQAPGKGLEWVSAISRSGSNIYYADSVKGRFTISRDNSKNTLYLQMNSLRAEDTAVYYCARLLSRGYNGYYHKFDVWGQGTLVTVSS
# VL: B1 VL
# B20: MS-R 3.6H5 x 3.6L1 Fab (antibody, V domains shown)
# VH: B14 VH with V48A, T52S, N55T, I56K
# VL: B1 VL with R28F, V29I, S30Q, G31R, R32F, T86V, L92T, S93Y, S94N
# B21: MS-R 7.11H2 x 7.2L1(L1) Fab (antibody, V domains shown)
# VH: B2 VH with D52N, N54Y, R55K
# VL: B1 VL with R28Y, S30D, G31R, R32T, L92I, S93Y, Y95F, P97H
# B22: MS-R 7.4H2 x 7.2L1 Fab (antibody, V domains shown)
# VH: B2 VH with A51Y, D52N, N54A, K56I
# VL: B1 VL with R28Y, S30D, G31R, R32T, L92I, S93Y, Y95F, P97H
# B23: MS-R 7.11H2 x 7.9L1(L1) Fab (antibody, V domains shown)
# VH: B2 VH with D52N, N54Y, R55K
# VL: B1 VL with V29L, G31P, Q90L, L92I, S93Y, S94N, Y95M, P97I
# B24: MS-R 3.3H1 x 3.4L9 Fab (antibody, V domains shown)
# VH: B14 VH with T52K, G53S, K54R, N55F
# VL: B1 VL with Q27R, V29I, S30H, G31V, R32Y, L92T, S93Y, S94D
# B25: MS-R 3.4H1 x 3.4L9 Fab (antibody, V domains shown)
# VH: B14 VH with V48A, G53S, K54I, N55R, I56K
# VL: B1 VL with Q27R, V29I, S30H, G31V, R32Y, L92T, S93Y, S94D
# B26: MS-R 3.4H7 x 3.4L7 Fab (antibody, V domains shown)
# VH: B14 VH
# VL: B1 VL with V29L, S30G, G31R, R32L, L92T, S93Y, S94D
# B27: MS-R 7.11H1 x 7.2L1 Fab (antibody, V domains shown)
# VH: B2 VH with A48G, D52A, N54F, K56T
# VL: B1 VL with R28Y, S30D, G31R, R32T, L92I, S93Y, Y95F, P97H
# B28: MS-R 3.6H5 x 3.6L2 Fab (antibody, V domains shown)
# VH: B14 VH with V48A, T52S, N55T, I56K
# VL: B1 VL with R28F, V29L, G31R, R32Y, T86V, L92T, S93Y, S94N
# B29: MS-R 7.9H2 x 7.2L1(L1) Fab (antibody, V domains shown)
# VH: B2 VH
# VL: B1 VL with R28Y, S30D, G31R, R32T, L92I, S93Y, Y95F, P97H
# B30: MS-R 7.4H2 x 7.12L2 Fab (antibody, V domains shown)
# VH: B2 VH with A51Y, D52N, N54A, K56I
# VL: DIVLTQSPATLSLSPGERATLSCRASQRFFYKYLAWYQQKPGQAPRLLISGSSNRATGVPARFSGSGSGTDFTLTISSLEPEDFAVYYCLQLYNIPNTFGQGTKVEIKR
# B31: MS-R 7.9H2 x 7.12L1 Fab (antibody, V domains shown)
# VH: B2 VH
# VL: B30 VL with R28Y, F29V, Y31R, K32R
# B32: MS-R 7.9H2 x 7.12L2(L1+2) Fab (antibody, V domains shown)
# VH: B2 VH
# VL: B30 VL
# Target: Aβ1-40 fibers (human)
# Assay: SPR
row,Kd [nM],Binder
1,4.8,B1
2,5,B2
3,13.3,B3
4,1.1,B4
5,13.7,B5
6,16.3,B6
7,9.3,B7
8,31,B8
9,4.8,B9
10,1100,B10
11,15.6,B11
12,1,B12

# Target: Aβ1-42 fibers (human)
# Assay: SPR
row,Kd [nM],Binder
1,3.7,B1
2,5.7,B2
3,12.7,B3
4,1.2,B4
5,13.1,B5
6,9.1,B6
7,9.3,B7
8,93,B8
9,4.2,B9
10,1710,B10
11,11.1,B11
12,0.9,B12

# Target: Aβ1-42 fibers (human)
# Assay: SPR
# Remark: another data set of the same source
row,Kd [nM],Binder
1,0.15,B13

# Target: Aβ1-40 fibers (human)
# Assay: SPR
# Remark: another data set of the same source
row,Kd [nM],Binder
1,0.66,B13

# Target: Aβ1-42 fibers (human)
# Assay: SPR
# Remark: another data set of the same source
row,Kd [nM],Binder
1,0.67,B13

# Target: Aβ1-40 fibers (human)
# Assay: SPR
# Remark: another data set of the same source
row,Kd [nM],Binder
1,0.14,B13

# Target: Aβ1-40 fibers (human)
# Assay: SPR
# Remark: another data set of the same source
row,Kd [nM],Binder
1,2.66,B14
2,1.05,B15
3,1.29,B16
4,0.92,B17
5,0.41,B18
6,1.3,B19
7,1.25,B20
8,1,B21
9,1.4,B22
10,0.1,B23
11,2.16,B24
12,0.25,B25
13,1.19,B26
14,1.75,B27
15,1.26,B28
16,1.4,B29
17,1.4,B30
18,1.2,B31
19,0.4,B32

# Target: Aβ1-42 fibers (human)
# Assay: SPR
# Remark: another data set of the same source
row,Kd [nM],Binder
1,3.51,B14
2,0.93,B15
3,1.43,B16
4,0.92,B17
5,0.47,B18
6,1.6,B19
7,1.04,B20
8,0.6,B21
9,1.4,B22
10,1,B23
11,2.97,B24
12,0.5,B25
13,1.23,B26
14,1.39,B27
15,0.84,B28
16,1.4,B29
17,1.8,B30
18,1.1,B31
19,0.4,B32

# From US7794719 (dated 2010)
